Assay: Aldol cleavage reaction of fructose 1,6-bisphosphate, coupled with TIM/G3PDH, NADH 340 nm
Format: biochemical
Conditions: F1,6P2 cleaved, 37° C., 30 minutes, pH 8.0
Experimental: The aldolase activity of the human 35 kd protein was determined as follows, according to the method described in a reference (Novel Biochemistry Experiment Lectures, Vol. 15, Metabolism Abnormality, p. 111, edit. Biochemical Society of Japan, publish. Tokyo Kagaku Dojin-sha, Sep. 22, 1992):
Conjugated with triose phosphate isomerase (TIM) and glycerol 3-phosphate dehydrogenase (G3PDH), the aldol cleavage reaction of fructose 1,6-bisphosphate (F1, 6P2) with the 35 kd protein was determined with NADH.
A reaction liquid having the composition mentioned below was prepared, and reacted at 37° C. for 30 minutes. The enzymatic reaction was monitored through the reduction in the 340 nm absorbance owing to the oxidation of NADH in the reaction liquid. The enzymatic reaction was indicated by the number of mols of F1, 6P2, per mg of the protein, cleaved within 1 minute (μmol/min/mg protein).
Reaction liquid 200 μl: 0.25 mM tris HCl buffer (pH 8.0), 0.15 M NaCl, 0.5 mM F1, 6P2 (from Sigma), human 35 kd protein, human liver TIM (500 μg/ml), rabbit skeletal muscle G3PDH (8 units/ml, from Sigma), 0.3 mM NADH (from Nakarai).
For comparison, a commercial product aldolase, Sigma's rabbit skeletal muscle aldolase (A-type aldolase), and an enzyme-free system were tested in the same manner.

B1: Human 35 kd protein: novel 35 kd protein, amino acid sequence SEQ ID NO: 2, expressed in E. coli and purified (protein, listed as Homo sapiens)
chain: MLGPQVWSSVRQGLSRSLSRNVGVWASGEGKKVDIAGIYPPVTTPFTATAEVDYGKLEENLHKLGTFPFRGFVVQGSNGEFPFLTSSERLEVVSRVRQAMPKNRLLLAGSGCESTQATVEMTVSMAQVGADAAMVVTPCYYRGRMSSAALIHHYTKVADLSPIPVVLYSVPANTGLDLPVDAVVTLSQHPNIVGMKDSGGDVTRIGLIVHKTRKQDFQVLAGSAGFLMASYALGAVGGVCALANVLGAQVCQLERLCCTGQWEDAQKLQHRLIEPNAAVTRRFGIPGLKKIMDWFGYYGGPCRAPLQELSPAEEEALRMDFTSNGWL
- Aldolase Activity (μmol/min/mg protein): 0.0034 μmol/min/mg protein

Source: US7371842B2, “Polynucleotide encoding a 35 KDA protein thats binds to WF00144” (Astellas Pharma Inc., priority 2002, dated 2008)
